Tests used:
[1] = biological target: T1, Biotinylated RAD21 peptide, residues 356-395 (Biotin-Ttds-RAD21 356-395) (human, N-terminal biotin followed by a trioxatridecan–succinamic acid spacer (Biotin-Ttds-)); experiment: SPR; Biacore S200, SA chip, ~400 RU biotinylated RAD21 356-395 immobilised; STAG1 as analyte, single cycle kinetics 7.5-1,000 nM, 120 s injections; 10 mM Hepes pH 7.5, 150 mM NaCl, 0.5 mM TCEP; 1:1 binding model; details: both partners purified
T1 construct: Immobilised on a streptavidin (SA) sensor chip through the biotin; source: synthetic peptide, purchased
T1 peptide: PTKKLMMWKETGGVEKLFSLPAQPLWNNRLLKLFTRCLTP

[2] = biological target: T1, Biotinylated RAD21 peptide, residues …; experiment: SPR; Biacore S200, SA chip, biotinylated RAD21 356-395 immobilised; STAG1 as analyte, equilibrium analysis (650 s association, 1,200 s dissociation), dose-response fit; 10 mM Hepes pH 7.5, 150 mM NaCl, 0.5 mM TCEP; apparent; details: both partners purified

- Kd [1]: 127 nM
- koff [1]: 0.00709 s⁻¹
- kon [1]: 55900 M⁻¹ s⁻¹
- Kd [2]: 148 ± 22 nM
B1: STAG1 central region, wild type, as used in surface plasmon resonance (residues 415-915 as printed in the results) (domain or fragment)
chain: NVYHLVYSAHRPVAVAAGEFLHKKLFSRHDPQAEEALAKRRGRNSPNGNLIRMLVLFFLESELHEHAAYLVDSLWESSQELLKDWECMTELLLEEPVQGEEAMSDRQESALIELMVCTIRQAAEAHPPVGRGTGKRVLTAKERKTQIDDRNKLTEHFIITLPMLLSKYSADAEKVANLLQIPQYFDLEIYSTGRMEKHLDALLKQIKFVVEKHVESDVLEACSKTYSILCSEEYTIQNRVDIARSQLIDEFVDRFNHSVEDLLQEGEEADDDDIYNVLSTLKRLTSFHNAHDLTKWDLFGNCYRLLKTGIEHGAMPEQIVVQALQCSHYSILWQLVKITDGSPSKEDLLVLRKTVKSFLAVCQQCLSNVNTPVKEQAFMLLCDLLMIFSHQLMTGGREGLQPLVFNPDTGLQSELLSFVMDHVFIDQDEENQSMEGDEEDEANKIEALHKRRNLLAAFSKLIIYDIVDMHAAADIFKHYMKYYNDYGDIIKETLSKTRQID

— PMC7266993, “STAG1 vulnerabilities for exploiting cohesin synthetic lethality in STAG2-deficient cancers” (Life Science Alliance, 2020)
